Measurements taken from US20110166062A1 (INDIANA UNIVERSITY RESEARCH AND TECHNOLOGY, published 2011).
Bridges are numbered along the chain shown (N, C = ends). Primed or numbered codes have the meaning given here. Where no end group is shown, it is not given here. Side-chain parts run from the residue outwards. [ ]: non-standard residue; d: D form. The star is where a group is joined. maleimide = maleimide group on activated PEG, it reacts with the Cys thiol (Michael addition) to give a thioether linkage; PEG 40 kDa″ = polyethylene glycol of 40 kDa covalently attached to the side chain; PEG 40 kDa = PEG (40 kDa) covalently attached to Cys; Myristoyl = CCCCCCCCCCCCCC(=O)*; Aib = CC(C)(N)C(=O)O

T1: GIP receptor (UniProt P48546 22-466)
T1 sequence (looked up): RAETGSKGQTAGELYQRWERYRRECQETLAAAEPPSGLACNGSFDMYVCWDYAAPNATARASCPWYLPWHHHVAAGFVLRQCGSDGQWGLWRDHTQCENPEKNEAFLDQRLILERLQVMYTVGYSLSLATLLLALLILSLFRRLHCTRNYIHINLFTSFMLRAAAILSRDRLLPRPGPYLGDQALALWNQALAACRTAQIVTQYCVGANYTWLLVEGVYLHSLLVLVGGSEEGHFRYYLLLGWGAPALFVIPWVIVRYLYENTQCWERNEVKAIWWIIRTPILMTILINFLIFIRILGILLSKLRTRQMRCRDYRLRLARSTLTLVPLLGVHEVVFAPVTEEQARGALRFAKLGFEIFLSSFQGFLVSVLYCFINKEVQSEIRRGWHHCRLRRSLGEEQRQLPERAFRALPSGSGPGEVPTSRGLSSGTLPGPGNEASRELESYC

T2: GIP receptor (UniProt P48546 22-466)
T2 sequence (looked up): T1 sequence (looked up)

B1: mt-340 (peptide)
peptide: Y[Aib]EGTFTSDYSIYLDKQAA[Aib]EFVNWLLAGGPSSGAPPPSKC-NH2
B2: mt-331 (peptide)
peptide: Y[Aib]EGTFTSDYSIYLDKQAA[Aib]EFVC(PEG 40 kDa)WLLAGGPSSGAPPPSK-NH2
modifications: also: PEG linkage structure not given here
B3: mt-339 (peptide)
peptide: Y[Aib]EGTFTSDYSIYLDKQAA[Aib]EFVNWLLAGGPSSGAPPPSK(Myristoyl)C-NH2
B4: mt-175 (peptide)
peptide: Y[Aib]QGTFTSDYSIYLDEQAAKEFVC(PEG 40 kDa)WLLAGGPSSGAPPPS-NH2
modifications: lactam 16-20
B5: mt-186 (peptide)
peptide: Y[Aib]QGTFTSDYSIYLDEQAAKEFVC(PEG 40 kDa″)WLMNG-NH2
modifications: lactam 16-20
B6: mt-176 (peptide)
peptide: Y[Aib]QGTFISDYSIYLDEQAAKEFVNWLLAGGPSSGAPPPSC-NH2
modifications: lactam 16-20
B7: mt-197 (peptide)
peptide: GTFTSDYSIYLDEQAAKEFVNWLLAG-NH2
modifications: lactam 13-17; N-terminus assumed
SMILES: CC[C@H](C)[C@H](NC(=O)[C@H](CO)NC(=O)[C@H](Cc1ccc(O)cc1)NC(=O)[C@H](CC(=O)O)NC(=O)[C@H](CO)NC(=O)[C@@H](NC(=O)[C@H](Cc1ccccc1)NC(=O)[C@@H](NC(=O)CN)[C@@H](C)O)[C@@H](C)O)C(=O)N[C@@H](Cc1ccc(O)cc1)C(=O)N[C@@H](CC(C)C)C(=O)N[C@@H](CC(=O)O)C(=O)N[C@H]1CCC(=O)NCCCC[C@@H](C(=O)N[C@@H](CCC(=O)O)C(=O)N[C@@H](Cc2ccccc2)C(=O)N[C@H](C(=O)N[C@@H](CC(N)=O)C(=O)N[C@@H](Cc2c[nH]c3ccccc23)C(=O)N[C@@H](CC(C)C)C(=O)N[C@@H](CC(C)C)C(=O)N[C@@H](C)C(=O)NCC(N)=O)C(C)C)NC(=O)[C@H](C)NC(=O)[C@H](C)NC(=O)[C@H](CCC(N)=O)NC1=O
B8: mt-191 (peptide)
peptide: Y[Aib]QGTFTSDYSIYLDEQAAKEFVNWLLAGGPSSGAPPPS-NH2
modifications: N-terminus assumed
SMILES: CC[C@H](C)[C@H](NC(=O)[C@H](CO)NC(=O)[C@H](Cc1ccc(O)cc1)NC(=O)[C@H](CC(=O)O)NC(=O)[C@H](CO)NC(=O)[C@@H](NC(=O)[C@H](Cc1ccccc1)NC(=O)[C@@H](NC(=O)CNC(=O)[C@H](CCC(N)=O)NC(=O)C(C)(C)NC(=O)[C@@H](N)Cc1ccc(O)cc1)[C@@H](C)O)[C@@H](C)O)C(=O)N[C@@H](Cc1ccc(O)cc1)C(=O)N[C@@H](CC(C)C)C(=O)N[C@@H](CC(=O)O)C(=O)N[C@@H](CCC(=O)O)C(=O)N[C@@H](CCC(N)=O)C(=O)N[C@@H](C)C(=O)N[C@@H](C)C(=O)N[C@@H](CCCCN)C(=O)N[C@@H](CCC(=O)O)C(=O)N[C@@H](Cc1ccccc1)C(=O)N[C@H](C(=O)N[C@@H](CC(N)=O)C(=O)N[C@@H](Cc1c[nH]c2ccccc12)C(=O)N[C@@H](CC(C)C)C(=O)N[C@@H](CC(C)C)C(=O)N[C@@H](C)C(=O)NCC(=O)NCC(=O)N1CCC[C@H]1C(=O)N[C@@H](CO)C(=O)N[C@@H](CO)C(=O)NCC(=O)N[C@@H](C)C(=O)N1CCC[C@H]1C(=O)N1CCC[C@H]1C(=O)N1CCC[C@H]1C(=O)N[C@@H](CO)C(N)=O)C(C)C
B9: mt-172 (peptide)
peptide: Y[Aib]QGTFTSDYSIYLDEQAAKEFVC(PEG 40 kDa)WLLAG-NH2
modifications: lactam 16-20
B10: mt-174 (peptide)
peptide: Y[Aib]EGTFTSDYSIYLDEQAAKEFVNWLLAGGPSSGAPPPSC-NH2
modifications: lactam 16-20; N-terminus assumed
SMILES: CC[C@H](C)[C@H](NC(=O)[C@H](CO)NC(=O)[C@H](Cc1ccc(O)cc1)NC(=O)[C@H](CC(=O)O)NC(=O)[C@H](CO)NC(=O)[C@@H](NC(=O)[C@H](Cc1ccccc1)NC(=O)[C@@H](NC(=O)CNC(=O)[C@H](CCC(=O)O)NC(=O)C(C)(C)NC(=O)[C@@H](N)Cc1ccc(O)cc1)[C@@H](C)O)[C@@H](C)O)C(=O)N[C@@H](Cc1ccc(O)cc1)C(=O)N[C@@H](CC(C)C)C(=O)N[C@@H](CC(=O)O)C(=O)N[C@H]1CCC(=O)NCCCC[C@@H](C(=O)N[C@@H](CCC(=O)O)C(=O)N[C@@H](Cc2ccccc2)C(=O)N[C@H](C(=O)N[C@@H](CC(N)=O)C(=O)N[C@@H](Cc2c[nH]c3ccccc23)C(=O)N[C@@H](CC(C)C)C(=O)N[C@@H](CC(C)C)C(=O)N[C@@H](C)C(=O)NCC(=O)NCC(=O)N2CCC[C@H]2C(=O)N[C@@H](CO)C(=O)N[C@@H](CO)C(=O)NCC(=O)N[C@@H](C)C(=O)N2CCC[C@H]2C(=O)N2CCC[C@H]2C(=O)N2CCC[C@H]2C(=O)N[C@@H](CO)C(=O)N[C@@H](CS)C(N)=O)C(C)C)NC(=O)[C@H](C)NC(=O)[C@H](C)NC(=O)[C@H](CCC(N)=O)NC1=O
B11: mt-178 (peptide)
peptide: Y[Aib]EGTFTSDYSIYLDEQAAKEFVNWLLAGGPSSGAPPPSC([maleimide-PEG 40 kDa])-NH2
modifications: lactam 16-20
B12: mt-182 (peptide)
peptide: Y[Aib]QGTFISDYSIYLDEQAAKEFVNWLLAGGPSSGAPPPSC(PEG 40 kDa)-NH2
modifications: lactam 16-20
B13: mt-194 (peptide)
peptide: [Aib]QGTFTSDYSIYLDEEAVRLFVNWLLAGGPSSGAPPPS-NH2
modifications: N-terminus assumed
SMILES: CC[C@H](C)[C@H](NC(=O)[C@H](CO)NC(=O)[C@H](Cc1ccc(O)cc1)NC(=O)[C@H](CC(=O)O)NC(=O)[C@H](CO)NC(=O)[C@@H](NC(=O)[C@H](Cc1ccccc1)NC(=O)[C@@H](NC(=O)CNC(=O)[C@H](CCC(N)=O)NC(=O)C(C)(C)N)[C@@H](C)O)[C@@H](C)O)C(=O)N[C@@H](Cc1ccc(O)cc1)C(=O)N[C@@H](CC(C)C)C(=O)N[C@@H](CC(=O)O)C(=O)N[C@@H](CCC(=O)O)C(=O)N[C@@H](CCC(=O)O)C(=O)N[C@@H](C)C(=O)N[C@H](C(=O)N[C@@H](CCCNC(=N)N)C(=O)N[C@@H](CC(C)C)C(=O)N[C@@H](Cc1ccccc1)C(=O)N[C@H](C(=O)N[C@@H](CC(N)=O)C(=O)N[C@@H](Cc1c[nH]c2ccccc12)C(=O)N[C@@H](CC(C)C)C(=O)N[C@@H](CC(C)C)C(=O)N[C@@H](C)C(=O)NCC(=O)NCC(=O)N1CCC[C@H]1C(=O)N[C@@H](CO)C(=O)N[C@@H](CO)C(=O)NCC(=O)N[C@@H](C)C(=O)N1CCC[C@H]1C(=O)N1CCC[C@H]1C(=O)N1CCC[C@H]1C(=O)N[C@@H](CO)C(N)=O)C(C)C)C(C)C
B14: mt-192 (peptide)
peptide: FTSDYSIYLDEQAAKEFVNWLLAGGPSSGAPPPS-NH2
modifications: not fully specified

The binders below were run against GLP-1 receptor (UniProt P43220 24-463, limits assumed) (assay: cell-based or functional assay).

| Binder | EC50 [nM] | relative activity [%] |
| --- | --- | --- |
| B1 | 0.0061 | – |
| B2 | 0.448 | 4.53 |
| B3 | 0.0092 | – |

These binders were tested against T1, GIP receptor (assay: cell-based or functional assay).

| Binder | EC50 [nM] | relative activity [%] |
| --- | --- | --- |
| B1 | 0.0028 | – |
| B2 | 0.0968 | 10.6 |
| B3 | 0.004 | – |

The binders below were run against glucagon receptor (UniProt P47871 26-477, limits assumed) (assay: cell-based or functional assay).
Target sequence in this assay (P47871 26-477 limits assumed): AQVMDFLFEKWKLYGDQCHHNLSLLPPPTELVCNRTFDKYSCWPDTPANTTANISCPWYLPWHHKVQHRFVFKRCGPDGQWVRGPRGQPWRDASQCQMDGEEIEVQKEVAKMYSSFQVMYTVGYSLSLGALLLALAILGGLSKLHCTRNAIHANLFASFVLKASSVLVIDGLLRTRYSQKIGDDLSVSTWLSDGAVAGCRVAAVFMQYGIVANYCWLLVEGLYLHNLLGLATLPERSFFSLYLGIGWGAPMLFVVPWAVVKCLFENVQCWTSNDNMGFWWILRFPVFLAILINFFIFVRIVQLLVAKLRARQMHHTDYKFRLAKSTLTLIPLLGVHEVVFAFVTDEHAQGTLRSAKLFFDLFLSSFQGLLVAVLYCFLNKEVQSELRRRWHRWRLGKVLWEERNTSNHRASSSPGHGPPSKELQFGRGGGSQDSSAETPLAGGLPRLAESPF

| Binder | EC50 [nM] | relative activity [%] |
| --- | --- | --- |
| B1 | 10.5 | – |
| B2 | 408 | 0.02 |
| B3 | 8.72 | – |

Molecular target: glucagon receptor (UniProt P47871 26-477, limits assumed)
Test: cell-based or functional assay
Remark: another data set of the same source
Target sequence in this assay (P47871 26-477 limits assumed): as above

| Binder | EC50 [nM] | relative activity [%] |
| --- | --- | --- |
| B4 | 2.42 | 1.49 |
| B5 | 1.58 | 2.22 |
| B6 | 0.141 | – |
| B7 | 47.7 | 0.13 |
| B8 | 1.46 | 4.32 |
| B9 | 9.16 | 0.45 |
| B10 | 57.5 | 0.06 |
| B11 | 8.25 | 0.42 |

Each binder was assayed against T2, GIP receptor (assay: cell-based or functional assay).

| Binder | EC50 [nM] | relative activity [%] |
| --- | --- | --- |
| B12 | 0.08 | – |
| B4 | 1.93 | 0.93 |
| B5 | 15.2 | 0.14 |
| B6 | 0.055 | – |
| B8 | 0.189 | 16.9 |
| B9 | 7.54 | 0.25 |
| B10 | 0.023 | 95.7 |
| B11 | 0.448 | 4.69 |

Molecular target: GLP-1 receptor (UniProt P43220 24-463, limits assumed)
Test: cell-based or functional assay
Remark: another data set of the same source

| Binder | EC50 [nM] | relative activity [%] |
| --- | --- | --- |
| B12 | 10 | – |
| B13 | 4.16 | 0.63 |
| B4 | 0.22 | 5.91 |
| B5 | 0.5 | 2.8 |
| B6 | 8.69 | – |
| B7 | 35.3 | 0.07 |
| B8 | 0.011 | 209 |
| B9 | 0.859 | 3.43 |
| B10 | 0.017 | 118 |
| B14 | 47 | 0.06 |
| B11 | 0.171 | 8.19 |
